The DeepSol protein solubility set

Test: soluble on expression in E. coli; label from the status in PepcDB or PDB records

Sequence	soluble on expression in E. coli
GSSHHHHHHDYDIPTTENLYFQGSAHRPRWTLSQVTELFEKPLLDLLFEAQQVHRQHFDPRQVQVSTLLSIKTGACPEDCKYCPQSSRYKTGLEAERLMEVEQVLESARKAKAAGSTRFCMGAAWKNPHERDMPYLEQMVQGVKAMGLEACMTLGTLSESQAQRLANAGLDYYNHNLDTSPEFYGNIITTRTYQERLDTLEKVRDAGIKVCSGGIVGLGETVKDRAGLLLQLANLPTPPESVPINMLVKVKGTPLADNDDVDAFDFIRTIAVARIMMPTSYVRLSAGREQMNEQTQAMCFMAGANSIFYGCKLLTTPNPEEDKDLQLFRKLGLNPQQTAVLAGDNEQQQRLEQALMTPDTDEYYNAAAL	soluble
MFSEELEKIDWEETTKTIYSKTESDVLRALGKEHCDVDDFMALISPAAAKYLEPMAQLSKKYTEERFGKTISMFIPLYITNSCTNSCVYCGFHISNPMARTILTPEQIEDEYKAIKKLGPFENLLLVTGENPAKAGVPYLAKALDIAKKYFSNLKIEVMPLKAEEYAELKEHGLNGVICFQETYNKARYNIYHPRGMKSKFEWRVNGFDRMGQAGVHSIGMGVLIGLEEWRTDVTMMAYHLRYLQKKYWKTKYSVNFPRMRPAENGGFQPNVIMNDRELAQLTFAMRIFDHDVDISYSTREPAQIRDNMAGLGVTTMSAESKTEPGGYYTYPQALEQFHVSDERTAVEVEHALKSLGREPVWKDWDVSFDKFTPIR	not soluble
MKILLFICGEGLGHTGRCLALGKEFLAAGHEVNFGAYGYSKGLVQKTGYSAYEIPSEIKLAGEAGTFDIRKSIKETLNNLSPSGFRKILRLIEKLDPDVVLSDGYYTGILAAQKRKVPVYFIGHQFNMEEFFWKKGLFAGIAGIFVKRFYNYVFSSVDGIIVPDYPLPYSVNRKNFTISRAVNDNIFFSGPLIRCRYQEAGEKAFKRPNVLSTIGAFGYRAAVFRNVLEAAKLDPSIYYTFISGPEIDPEQFSKVPENVEFTGFTENPFPYYKGSDLVITAGGHGTIMESLAFGLPILSFPDEKHAEQENNASVLEEAGYGKRMSYLTPPEVILACIREIFEDENYSKKTRRLMELAEVLDGPAAVRKFLEEKHRGLEHHHHHH	not soluble
MKILLVFDFDNTIIDDNSDTWIVQCAPNKKLPIELRDSYRKGFWTEFMGRVFKYLGDKGVREHEMKRAVTSLPFTPGMVELFNFIRKNKDKFDCIIISDSNSVFIDWVLEAASFHDIFDKVFTNPAAFNSNGHLTVENYHTHSCNRCPKNLCKKVVLIEFVDKQLQQGVNYTQIVYIGDGGNDVCPVTFLKNDDVAMPRKGYTLQKTLSRMSQNLEPMEYSVVVWSSGVDIISHLQFLIKD	not soluble
MGSDKIHHHHHHMDHQIEDFLEHWLPLADDAWVLAVITQIQGSAYRKPGAMMLFHEFGQGVGMLSGGCLEADLRRHAQKAMQTKQVTCVTYDASDESDASYRLGCGGIVDIMLIPLLKENHDLGLIELVQAFRHGRSGFYQLPLVKAGTDARQYQAAFYPEALTPFPASDFVRTGVFTQEAGESLIIPLRPRFHLGIFGGGIDAKPIAAMADTLGWQVTVFDGRTAYARAADFPHAHIVKLTAGELTANHIAQLDCAVVMNHNLGLDAVALKVIQAHPLAYVALLGPAHRRDKVLGMAGLSTESFSGVFSAPAGLALGGELPSAVALSILAQCHGVLHGATLKHLDEIMR	not soluble
MHAIILTMRVGIVGFGNMGQAFALCFSKKLGKENIIVTDKVQEKRNLATEMGIAFASDVKFLADNSDVVLVAVKPKDSQEVLQKLKDYKGIILSIMAGVSIEKMEKILGKDKKIVRVMPNVNVAVGSGVMAITDNGNLSEEERSKVEELLLSCGTLYRIEERLFDAFTALAGSGPAFVFSFIDALALAGVHQGFSYEQALRIALDTVMGSAKLLKEFQVNPNELIAKVTSPGGTTIEGIKYLEEKGFKGTVMECINRTSQKAKKLLEHHHHHH	not soluble
GTKQEKTILNMARFIRSQALTILEKANELDADEIADIAESIHDHADEIYRSALARFGDDGENL	soluble
PQKIFTPSAEIVKYTKIIAMEKLYAVFTDYEHDKVSRDEAVNKIRLDTEEHLKEKFPEVDQFEIIESFNIVAKEVFRSIILNEYKRCDGRD	soluble
MGSDKIHHHHHHMEMESPVRILFVIDQFSSPYAGTEGQLLQLISNLPADRFDPELLVLRSSDYVNEGNIPCKVHVLGSSKLFSMKTWLALFQFARRQKQAGTALCHVFFNDSSVLCPPVFGLVGIPTLISRRDMGYWYTRKYLWVLRRTAGFVRGVVANSEAVKRITVQKEGFSDADVSVIYNGYPEGDEELHPLIGEERQRYVETLGLPKSGRFVVLVANLRDIKRIGDAISAMARLTQTLPDTHLVLIGAGDQKPYRMLAEAVGNAGQVHFLGARSDVNNILRVMDVGLLCSESEGYSNAIVEYMQAKLPVVASDVGGNSEAVEHGVTGFLFPMGDVDQMAEQLATVLKGESRAVASMGEAGYKRAGHRHALHTMIEAHCGLYDRLLSGSDYSRSGLGVR	not soluble
MPTYKLTYFNSRFYAEPARILFHLAGVPFEDIRIIHGDGTWEQIKDKTPFGQVPVLNINGFEIPQSTAIIRYLATKFGYAGKTPEEQAWADAICDQVRDFMAVPFKDIVVAKRVGKTEEEVSQLINEGFVPGRDAYFKIITRILEKNKSGFLVGDGITFADIVVVENLTTLQKNQLFEASKYPELAALREKVYAIPAIKKWVEARPDTQY	not soluble
MVRPRTIDRERLLDIAESIISEAGAVTISFGGLAEAAGLSKASVQSVFGTREAMMEALLERWLRKEQRAYQKKIGPQSSLRERVRRHVKITGKESSEANSRLAAVLTALVGSDATEGVMAKWYASRVGKFSAETQEERLLRIAFLAAEGAFFMRHVAGFPMSDRLWRELFHDLLDFVAEPVGGAARSAA	not soluble
MSLDLFDRKAAADTLKEAPLAERMRPRTLAEYVGQEHLLGPGKLLRQLIETDQLTSLIFWGPPGSGKTTLARIIAGATKSHFIFFSAILSGIKEIREIVKEADDIRKFHGKRTILFVDEIHRFNKSQQDAFLPYVERGVFTIIGATTENPSFEVIAPLLSRCKVLVLNPLTEEEITGILRQALADKERGLGALDLAIEDDALTFMAEQAGGDARVALNTLETASRLTSNGVVSLDTAREAVQKKPLLYDKGGEEHYNVISAFIKSMRGSDPDGALYWLARMIEAGEDPIFILRRMVILASEDIGNADPRALQVAVTALQGFQLVGMPEGRIIIGQAVTYLATAPKSNASYVGIDAALAEVRKSGALPVPLHIRNAPTRLMKDLGYGTGYRYAHDYAEGYVAQDYLPDQIKGRKYYDPTGHGYEKSIKERMEWLKGKKEGHHHHHH	soluble
MAHHHHHHMRCVRVVCQRFVEFVTFCSGVVPPLALLGYPLPGSGCQKTHPTALSLKGARVGDADAGNADTWLSRAIPRNWAAFCVNLQARGVGLVTVGLSYGSPSVVVRQVLGWGCGGNELRLYGFCRSSVLCRVWGVSVPLSAFTPCSVDDSIFSLLRYRIFRACAS	not soluble
MSEKLQKVLARAGHGSRREIESIIEAGRVSVDGKIAKLGDRVEVTPGLKIRIDGHLISVRESAEQICRVLAYYKPEGELCTRNDPEGRPTVFDRLPKLRGARWIAVGRLDVNTCGLLLFTTDGELANRLMHPSREVEREYAVRVFGQVDDAKLRDLSRGVQLEDGPAAFKTIKFSGGEGINQWYNVTLTEGRNREVRRLWEAVGVQVSRLIRVRYGDIPLPKGLPRGGWTELDLAQTNYLRELVELPPETSSKVAVEKDRRRMKANQIRRAVKRHSQVSGGRRSGGRNNNGLEHHHHHH	not soluble
MSLARDYRWEGVPLKAYKTDGTHFRAITRQTLLGADEDERALGHQTRYFEIAPGGYSSLERHQHTHTVMILRGQGELILGDALHRIGRHDCIYIAPQTFHQFHASGDEPLGFLCIVDRERDRPRLPDDDELARMRALPGVGPKVRTEGHHHHHH	soluble
MGSDKIHHHHHHMAESETGDKAGQASVKTALRVIEIMEIYAREGRSLTLTELAKLLGAPMSSCLGLIRTLASLGYLYETGRRQGYYPTSRLLNIAQRISRNDPLLERVQPVLETLRDATGETVIFGKLQDDGRVLYLEVRESQNPVRYTATPGELRDVHINSIGRAILGAMTDAARDAALAKVSFQPRTGRTVASREALEREIAMWQQQGWYPNFGESFPDLGAIAVPVEIGGAVYGMSVAGPIHRVESSVDPIVAALLRGQDALRT	not soluble
MSLLARYLNLIGRRSASPYRPQRLPAKFDNVIVAMSSGVDSSVAAALFAGEFPNTRGVYMQNWSESQSLDDPGKEPCYERDWRDVNRVAKHLNIRVDKVNFEQDYWIDVFEPMLRGYSEGSTPNPDIGCNKFVKFGKLREWLDEKYGTGNYWLVTGHYARVMQEMNGKGLFHLLRSIYRPKDQSYYLSQINSTVLSSLLLPIGHLTKPEVRDLAKYAGLPTAEKPDSQGICFVNNSQHGKFKNFLKHYLPSSPGDIITVDPQSGAKTTWGRHDGLWSYTIGQKVGISMPQADPNYQGTWFVSEKLRDTNEILIVRGRDNPALYSDTMRIENFSSLGPREDTINAFQNTGALTLQFRSLQVPVQIKSCKLNRSADNLDITIHLASKQRAITPGQSCCLYIDDRVLGSGPISHVNNNDTHAEGHHHHHH	not soluble
MFKRTKLILIATILLSGCSTTNNESNNETKSVPEEMEASKYVGQGFQPPAEKDAVEFAKKHKDKIAKRGEQFFMDNFGLKVKATNVVGSGDGVEVFVHCDDHDIVFNASIPFDKSIIDSDSSLRSEDKGDDMSTLVGTVLSGFEYRAQKEKYDNLYKFFKENEKKYQYTGFTKEAINKTQNSGYENEYFYIVANIPTLQEYRKYYEPLIKKNNLNFKKGMKQARKGVGYKAAIEVHTTLFSRSSNFSKDKKLDDVIDLSESTKKLHLNFENTKIFLQLAKSTISTNRVNYSDNESIRIEVELEHHHHHH	soluble
MALKLKLKMPSSSASNSPQPPPPESHSPEQPKLPKLKIKAPSKTPVSSTPDSSMALKRPQEEQSTGENPKKLKLSLSKTKENGRPKGLPRVRIKPTRIPGEGYDSEAPDLEDDPLIEQGIIIRFLNDSNLDFVHNAVDSGDLTGLNVKWVTKEKAIVNVNSILYSARLIDLPTVTEIFKTVDRKNVFKTLDICQILLVLHVVDPAKLNIDTDFEVPEEFLFNHPFYKYVKNNEIKKKRMVLKDGLLQPFQDVYRRFRPTKVDHRVILDIESKVDELIKLDNEADESHFELLDSKTAQQSRFGTSATPSAVNSPVAMRMEGPEVEPGRFSNVQDHENEEDDEEEDEEDYDDDDLQDDDMELHLEQELEKVLDGELSESEVTIPTSMAGILTNDVGNGISIMTNGEQSEDIDGDEQDDEEEEEEEEEDGDDEEEEEEEEEEENEEGDSESGKQHVKLLEEEIFELEKAVAHHQKNLSTASSKMLRMKFQNTYTSLKASLDSKKRDLAKLLDEQEQQQEQKQPKTTVDEKSQEAEHSVEAEAEIEAQVEADAEDGDEDEDIDQGDDMNQENNNNNGDSDIDEDNADDLDDLF	not soluble
MGSDKIHHHHHHVGYPRDFQLNYATLFSVSPLVIDWGSYSQIEAEMRLFQAAAPGKYAYYHLLSGLDLPLANQDEIHAFFAAHPGKEFITYSSQKNGAQLLARVQKYHFTHNFRQPNKAMRLFRKIEKAEQRVFPVRKKFAGTLAFGSNWVSLENDLVQVLLREDDRIRTMFARGFLVDELLVPTMLNIYPEFKDRIYYDRPVHDRPEEFQGSLRYINWWDGSPYVWREKDYETLLAARRQGHLFSRKFDAEVDKAIIDKIAGQLLEIK	not soluble
